Data: the nanobody polyreactivity screen of Harvey et al. (2022)

Test: yeast display, Sf9 membrane polyspecificity reagent, FACS + sequencing; frameworks hold sequencing errors
Procedure, shortened: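 Using colony PCR, genes from sorted yeast display clones were amplified, then sequenced on MiSeq at 2 × 250 and filtered by CDR length. The clones had been stained with 10% biotinylated, detergent-solubilized Sf9 membrane reagent for 1 hour at 4 °C and sorted by FACS into low and high (top ~1%) gates on anti-HA and streptavidin fluorescence. Polyreactivity labels come from the gate of origin.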

| Sequence | polyreactivity (PSR sort gate) |
| --- | --- |
| QVQLVESGGGLVQAGGSLRLSCAASGIIFRYYAMGWYRQAPGKERELVAAISGRGGSTYYADSVKGRFTISRDNAKNTVYLQMNSLKPEDTAVYYCAIYVSWPLYYYWGQGTQVTVSS | low polyreactivity |
| QVQRVESGGGLVQAGGSLRLSCAASGGTFAFNTMGWYRQAPGIERELVADISSGGSTNYADSVKGRFTISRDNAKNTVYLQMNRLKPVDSAVYYGNGGWDILYLQGDLDYWGQGTQVTVSS | low polyreactivity |
| QVQLVESGGGLVQAGGSLRLSCAASGSTFLLNAMGWYRQAPGKERELVAAITSSGGTNYADSVKGRFTISRDNAKNTVYLQMISLKPEDTAVYYCNTRYSPGYQGTEVDYWGQGTQVTVSS | low polyreactivity |
| QVQLVESGGGLVQAGGSLLLSCAASGSILRMYVMGWYRQAPGKESELVADRSDRGGSTYYADSVKGRFTISRDNAKNTVYLQMNSLKPEDTAVYYCAKDSETAGATYTEYDYWGQGTQVTVSS | low polyreactivity |
| QVQLVESGGGLVQAGGSLRLSCAASGIIFVYYAMGWYRQAPGKERELVAAISRSGGRTYYADSVKGRFTISRDNAKNTVYLQMNSLKPEDTAVYYCAAEVYKRYRYDYWGQGTQVTVSS | high polyreactivity |
| QVQLVESGGGLVQAGGSLRLSCAASGITFFEYAMGWYRQAPGKERELVAVITSGGSTNYADSVKGRFTISRDNAKNTVYLQMNSLKPEDTAVYYCNARVVKYRWWYDYYYWGQGTQVTVSS | low polyreactivity |
| QVQLVESGGGLVQAGGSLRLSCAASGRTFIINTMGWSRQATGTERELVAAISKNGATTNYADSVKGRFTISRDNAKNTVYLQMNSLKPEDTAVYYCNARYSGYLRLDYWGQGTQVTVSS | low polyreactivity |
| QVQLVESGGGLVQAGGSLRLSCAAYGSIFGSNAIGCYIQAPGKERELVAAISSGSTYYADTVKGRFTISRDNAKNTVYLQMNSLKPEDNAVYYCNARSLLYEFDYWGQGTQVTVSS | low polyreactivity |
| QVQLVESGGGLVQAGGSLRLSCAASGRSFYTNAMGWYRPAPGKERELLAAIRRSGTSTYYADSVKGRFTISRDNAYNTVYLQMNSLKPEDTAVYYCAALRSLLYRTYGYWGLGTQVTVSS | low polyreactivity |
| QVQLVESGGGLVQAGGSLRLSCAASGLIFVPYAMGWYRQAPGKERELVATISARGASTYYADSVKGRFTISRDNAKNTVYLQMNSLKPEDTAVYYCATRNYGRASYDYWGQGTQVTVSS | high polyreactivity |
| QVQLVESRGGLVQAGGSLRLSCAASGSNFYRNALGWYRQAPGKERELVAAISSDGSTNYADSVKGRFTISRDNAKNTVYLQLNSLKPEDTAVYSCAPHDRWHHRSLPYEYWGQGTQVTVSS | low polyreactivity |
| QVQLVESGGGLVQAGGSLRLSCASSGRIFYSYAMGWYRQAPGKERELVAAITVSGGSTFYADSVKGRFTISRDNAKNTVYLQMNSLKPEDTAVYYCAAQSTTIEDGWYVEYNYWGQGTQVTVSS | high polyreactivity |
| QVQLVESGGGLVQAGGSLRLSCAASGSTFEAYAMGWYRQAPGKERELVAAITWSSGSTYYADSVKGRFTISRDNAKNTVYLQMNSLKPEDTAVYYCNKDWLAYDSLRVPSTIAFDYWGQGTQVTVSS | low polyreactivity |
| QVQLVESGGGLVQAGGSLRLSCAASGGTFFENAMGWDRQAPGKERELVAAISSSGASTYYADSVKGRFTISRDNAKNTVYLQMNSLKPEDTAVYYCNAGQRVRSTLYDYWGQGTQVTVSS | high polyreactivity |
| QVQLVESVGGLVQAGGSLRLSCASSGSTFTYYAKVWYRQAPGKERELVAAISCTGTSTYYADSVKGRFTISRDNAKNTVYFQMNSLKPEDTAVYYSASTYRGYSGYKRRDYWGQGTQVTVSS | high polyreactivity |
| QVQLVESGGGLVQAGGSLRLSCAASGITFHGYAMGWYRQAPGKERELVAAISDSGSSTYYADSVKGRFTISRDNAKNTVYLQMNSLKPEDTAVYYCAAVSGFYDQYDYWGQGTQVTVSS | low polyreactivity |
| QVLLEESVGGLDQAGGSLRLSCAASGFNFQTNAMGRYRQAPGKEREFVAAISDSGGSTNYADSVKGRFTISRDNAKNTGYLQMNSLKPEDSAVYYCATSFAVYDYDYWGQGTQVTVSS | low polyreactivity |
| QVQLVESGGGLVQAGGSLRLSCAASGFIFRDYAMGWYRQAPGKEREFVAAITSRGGSTYYADSVKGRFTISRDNAKNTVYLQMNSLKPEDTAVYYCNRYWWAYGEYDYWGQGTQVTVSS | high polyreactivity |
| QFQLVESGGGLVQAGGSLRLSCAASGLIFYFYAMGWYRQAPGKEREFVAAISSGGDTYYADSVKGRFTISRDNAKNTVYLQMNSLKPEDNAVYYCAARRYRRGRSDYWGQGTQVTVSS | high polyreactivity |
| QVQLVESGGGLVQAGGSLRLSCAASGSTFTPYVMGWYRQAPGKEREMVASITGGGGSTYADSVKGRFTISRDNAKNTVYVQMNSLKPEDTAVYYCAAELYRSNVYHYDYWGQGSQVTVSS | high polyreactivity |
| QVQLEESGGGLMQAGGNLRLSCAASGYISTHYDMDWYRQAPGRERELVARIDDGAITNYADSVKGRFTISRDNATNTVYLQMNSLKPEDTAVYYCAVYSGDDYYHDYWGQGTQVTVSS | low polyreactivity |
| QVQLVESGGGLVQAGGSLRLSCAASGSIFSRNTLGWYRQAPGKERELVAAITRGGSTDYADSVKGRFTISRDNAKNTVYLQMNSLKPEDTAVYYCAKKTPGWGKFDYWGQGTQVTVSS | low polyreactivity |

| Sequence | polyreactivity (PSR sort gate) |
| --- | --- |
| QVQLVESGGGLGQAGGSLRLSCAASGSIFYSYAMGSYRQATGKERELVAAINWSGGSTYYADSVKGRFTISRDNAKNTVSLLMNSLKPEDTAVYYCAAGPGDSGDDYWGQCTQVTVSS | low polyreactivity |
| QVQLVESGGGLVQAGGSLRLSCAASGSTFRYYAMGWYRQAPGKERELVAAISGSGGRTYYADSVKGRFTISRDNAKNTVYLQMYSLKPEDTAVYYCNTRGRRTDYDYWGQGTQVTVSS | high polyreactivity |
| QVQLVDSGGGLVQAGGSLRLSCAASGSTFLFNAMGWYRQAPGNVREVVAGISSSGGSTHYADSVKGRFTISRDNAKNTVYLQMNSLKPEDTAVYYCNAQQYLPSEGDYWGQGTQVTVSS | low polyreactivity |
| QVQLVESGGGVVQAGGSLRLSCAASGRIFLTNALGWYRQAPGKVREVVADISRGGSTYADSVKGRFTISRDTAKNTVYLQMTSLKPEDTAVDYCAADEYSPGDSRTRYAYWGQGTQVPVSS | low polyreactivity |
| QVQLVESCGGLVQAGGSLRLSCAASGSIFSGYAMGWYRQAPWKERELVAAITWRAASTYYADSVTGRFTISRDNAMNTVYLQMNSLKPEDTAVYYCAKEGWPKPAFYYCGQGTQVTVSS | low polyreactivity |
| QVQLVESGGGLVQAGGSLRLSCAASGITFVKNVMGWYRQAPGKERELVAAISTIGARTYYADSVKGRFTISRDNAKNTVYLQMNSLKPEDTAVYYCAAENYPRRPRYDYWGQGTQVTVSS | high polyreactivity |
| QVQLVESGGGLVQAGGSLRLSCAASGITFYGYAMGWYRQAPGKERELVARITISGRTNYADYVKGRFTISRDNAKNTVYLQMNSLKPEDTAVYYCATLVHWSYPYYYWGQGTQVTVSS | high polyreactivity |
| QVQLVESGGGLVQAGGSLRLSCAASGRIFGWYAMGWYRQSPGKERELVAAITGSGSRTYYADSVKGRFTISRDNAKNTVYLQMNSLKPEDTAVYYCAVPTRRRRIYDYWGQGTQVTVSS | high polyreactivity |
| QVQLVESGGGLVQAGGSLRLSCAASGSIFRWNAMGWYRQAPRKEREMVAAIDYSGGSTYYADSVKGRFTISRDNAKKTVYLQMNSLKPEDTAVYFCADTAYYGGYLRYDYWGQGTQVTVSS | low polyreactivity |
| QVQLVESGGGLVQAGGSLRLSCAASGRIFPYYVMGWYRQAPGKERELVAAISRSGSSTYYADSVKGRFTISRDNAKNTVYLQMNSLKPEDTAVYYCAADYNWSPYYTRGDYWGQGTQVTVSS | high polyreactivity |
| QVQLVESGGGLVQAGGSLRLSCAASGSTFTSNTRWYRPAPGKERELVAAISSSGRTYYADSVKGRFTISRDNAKNTVYLQMNSLKPEDTAVYYCAARGREFGYWGQGTQVTVSS | high polyreactivity |
| QVQLVESGGGLVQAGGSLRLSCAASVSTFANNAMGWYRQAPGKERELVASITTDGSTNYADSVKGRFTISRDNAKNTVYLQMNSLKPEDTAVYYCAADYHTPSSFAPIELYDYWGQGTQVTVSS | low polyreactivity |
| QVQLVESGGGLVQAGGSLRLSCAASGRIYGPNAMGWYRQAPGKERELVAAISTSGGSTYYADSVKGRFTISRDNAKNTVYLQMNSLKPEDTAVYYCNVVHRGSWYYFWGQGTQVTVSS | high polyreactivity |
| QVQLLESGCGLVQAGGSLRLSCMASGSILGDRMSWYRQAPGKEHELVATIYDGGITYYADSMKGRFTISRDNAKNTVYLQMNSLRPEDTAVYYCGASFEGYRYHVYCGQGTQVTVSS | low polyreactivity |
| QVQLVESGGGLVQAGGSLRLSCAASGSTFHTYDMGWYRQAPGKERELVAAITSGGDTNYADSVKGRFTISRDNAKNTVYLQMNSLKPEDTAVYYCNTDRWGTGKLRYNYWGQGTQVTVSS | low polyreactivity |
| QVQLVESGGGLVQAGGSLRLSCAASGFTFTYYTMGWYRQAPGKERELVAAISYSGGSTYYADSVKGRFTISRDNAKNTVYLQMNSLKPEDTAVYYCNAVTSWAGSLDYWGQGTQVTVSS | high polyreactivity |
| QVQLVQSGGGLVQAGGSLRLSCAASGRTFSKYVLGWYRQAPGKERQLVAAITYSGGYTYYADSVKGRFTISRDNAKNTVYLQMYSLKPEDTAVYYCAAESYAHVSNGYDYWGQGTQVTVSS | low polyreactivity |
| QVQLQESGGGLVQAGGSLRQSCEASGYIFPYYSMGWYRQAPGKERGLVACIAAGTTTNYADSVKVRFTISRDNAKNTVYLQMNSLKPEDAAVYYCAALNAFNPGHWYWGQGSQVTVSS | low polyreactivity |
| QVQLVESGGGLVQAGGSLRLSCAASGITFGVYTMGWYRQAPGKEREFVAVISGRGGSTYYADSVKGRFTISRDNAKNTVYLQMNSLKPEDTAVYYCAADYYYIVDYWGQGTQVTVSS | high polyreactivity |
| QFQLEESGGGLVQAGGSLRLSCAASGFIFTDNGMGRYRQATGKERELVAAINSDGSTYYADSVKGRFTISRDNAKNTVYLQMTSLIPEYTAVYYCAAGSFDRYFWYDYWGQGTQVTVSS | low polyreactivity |
| QVQLVDSGGGLVQAGGSLRLSCSASRSNFVYNAIGWYRKAPWKERELVTGISGGGGTNYADSVKGRFTISRDNEKNTVYLQMNSLKPEDTAVYYCAAEQNYIEFDYWGQGTQVTVSS | low polyreactivity |
